Values quoted from earlier work as cited in PMC12528386.

Target: BamA (Escherichia coli) (UniProt P0A940)

Substance: RcsF (from UniProt P69411)
- Kd: 400 nM
